{"source": "patent US20110033498", "key": {"poly-SUMO-2 chains (2-8)": {"target": "poly-SUMO-2 chains (2-8) (UniProt P61956)", "sequence (P61956 1-93)": "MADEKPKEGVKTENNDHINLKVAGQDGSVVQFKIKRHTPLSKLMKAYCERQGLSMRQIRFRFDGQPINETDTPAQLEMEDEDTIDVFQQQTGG"}, "pro-SUMO-1": {"target": "pro-SUMO-1 (UniProt P63165)", "sequence (P63165 whole entry)": "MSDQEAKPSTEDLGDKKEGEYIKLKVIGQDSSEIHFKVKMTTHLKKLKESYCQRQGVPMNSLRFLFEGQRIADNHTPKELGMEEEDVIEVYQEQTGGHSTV"}}}
{"substance": "His6-SENP2CD (catalytic domain of SENP2)", "values": [{"measurement": "in vitro hydrolysis of poly-SUMO-2 chains, Coomassie staining", "setting": "poly-SUMO-2 chains (2-8)", "result": "the catalytic domain of SENP2 (SENP2CD), a SUMO-specific protease, could hydrolyze SUMO chains to monomers"}, {"measurement": "in vitro hydrolysis of poly-SUMO-2 chains, SDS-PAGE and Coomassie staining", "setting": "poly-SUMO-2 chains (2-8)", "result": "SENP2 reduced the chains to monomers"}, {"measurement": "in vitro processing of pro-SUMO-1, Coomassie staining", "setting": "pro-SUMO-1", "result": "could hydrolyze SUMO chains to monomers (FIG. 12D, lane 10) and process pro-SUMO-1"}, {"measurement": "in vitro hydrolysis of poly-SUMO-3 chains, Coomassie staining", "setting": "poly-SUMO-3 chains (2-8)", "result": "the catalytic domain of SENP2 (SENP2CD), a SUMO-specific protease, could hydrolyze SUMO chains to monomers"}, {"measurement": "in vitro hydrolysis of poly-SUMO-3 chains, anti-SUMO-3 Western blot", "setting": "poly-SUMO-3 chains (2-8)", "result": "An identical result was obtained when poly-SUMO-3(2-8) chains were tested"}]}
